The record followed here is PMC12141489 (Scientific Reports, 2025).

Where no end group is shown, it is not given here. The star is where a group is joined. Biotin = O=C1N[C@H]2[C@H](CS[C@H]2CCCCC(=O)*)N1

In assay [1] the target is Ab2 (humanized antibody) (human). Description: SPR. A general note: Surface plasmon resonance follows binding to a sensor surface in real time, without labels.
For assay [2], the target named is Ab4 (humanized antibody) (human). Description: SPR.
Assay [3] deals with myc-tagged human TRPM4 on HEK 293 cells (Homo sapiens, UniProt Q8TD43). Description: immunostaining of cells or tissue.
Chain of myc-tagged human TRPM4 on HEK 293 cells (Q8TD43 whole entry): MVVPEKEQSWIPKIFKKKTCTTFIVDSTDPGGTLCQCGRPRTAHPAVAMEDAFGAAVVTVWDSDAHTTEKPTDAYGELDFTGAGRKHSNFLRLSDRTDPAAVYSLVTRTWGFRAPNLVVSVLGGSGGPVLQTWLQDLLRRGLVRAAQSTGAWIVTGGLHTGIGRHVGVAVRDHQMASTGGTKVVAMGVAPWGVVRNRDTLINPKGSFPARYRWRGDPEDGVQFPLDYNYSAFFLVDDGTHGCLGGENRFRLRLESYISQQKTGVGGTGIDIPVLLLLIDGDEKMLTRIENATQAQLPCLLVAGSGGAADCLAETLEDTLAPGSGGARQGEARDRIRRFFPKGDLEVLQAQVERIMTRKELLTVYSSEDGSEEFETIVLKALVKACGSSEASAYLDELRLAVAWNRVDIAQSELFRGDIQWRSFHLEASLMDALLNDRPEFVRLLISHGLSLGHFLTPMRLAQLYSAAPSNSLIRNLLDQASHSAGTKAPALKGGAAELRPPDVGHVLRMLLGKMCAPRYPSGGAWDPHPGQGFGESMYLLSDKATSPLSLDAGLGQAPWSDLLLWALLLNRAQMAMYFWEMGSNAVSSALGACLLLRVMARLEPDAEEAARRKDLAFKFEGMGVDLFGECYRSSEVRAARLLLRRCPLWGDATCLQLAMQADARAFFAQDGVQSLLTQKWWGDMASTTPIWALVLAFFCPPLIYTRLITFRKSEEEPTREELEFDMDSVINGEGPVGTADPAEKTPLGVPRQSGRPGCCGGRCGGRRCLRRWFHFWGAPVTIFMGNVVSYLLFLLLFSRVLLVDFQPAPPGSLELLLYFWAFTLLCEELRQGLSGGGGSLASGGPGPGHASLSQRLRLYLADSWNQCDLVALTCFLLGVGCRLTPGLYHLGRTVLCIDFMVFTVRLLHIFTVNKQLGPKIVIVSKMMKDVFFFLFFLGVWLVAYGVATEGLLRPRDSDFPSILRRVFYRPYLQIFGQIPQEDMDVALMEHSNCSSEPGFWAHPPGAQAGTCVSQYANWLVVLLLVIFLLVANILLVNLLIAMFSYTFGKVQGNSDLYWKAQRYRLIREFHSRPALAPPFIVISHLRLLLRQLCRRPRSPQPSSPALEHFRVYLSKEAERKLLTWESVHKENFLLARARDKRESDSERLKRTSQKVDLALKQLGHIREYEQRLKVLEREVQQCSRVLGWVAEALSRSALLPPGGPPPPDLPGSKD

B1: Peptide-biotin (…{Lys(biotin)}) (peptide)
peptide: RDSDSNCSSEPGFWAHPPGAQK(Biotin)
Usually koff stands for the first-order rate constant of dissociation. A high value points to fast dissociation. What is called Kd is the constant that tells how readily two partners part at equilibrium. A higher Kd goes with weaker binding. Take B1: the koff in assay [1] was found to be 0.00166 s⁻¹. This molecule gave a Kd in assay [2] of 7 nM.

B2: Ab1 (chimeric antibody) (antibody, V domains shown)
VH: QVQLQESGPGLVKPSQSLSLTCTVTGYSITSDYAWNWIRQFPGNKLQWMGYLSYSGVTSYNPSLKGRISITRDTSKNQFFLQLSSVTPEDTATYYCARKGTYYRYEGSYWYFDVWGAGTTVTVSS
VL: DIQMNQSPSSLSASLGDTITITCHANQNIDVWLSWYQQKPGNVPKLLIYKTSNLHTGVPSRFSGSGSGTDFTLTISSLQPEDIATYYCQQGQSYPLTFGGGTKLEIK
As for B2, the binding result in assay [3] is recorded as “binds”.
